The target in data set [1] is T1, RXFP4 (Homo sapiens, UniProt Q8TDU9). Briefly: Inhibition of forskolin-induced cAMP activity in CHO-K1-RXFP4 cells (pCRE β-galactosidase reporter). In kind it is cell-based. On the set-up: expressed in transfected cells. The settings on record: RXFP4, CHO-K1-RXFP4 cells, 1 μM forskolin, 6 hours; Table 3; read-out: cAMP pEC50 (converted). As to the method: For agonist assays, cells were stimulated with forskolin (5 μM for RXFP3, 1 μM for RXFP4)±increasing concentrations of each peptide for 6 hours. Data were expressed as the % forskolin activity, whereby 100% was defined as forskolin alone and 0% as maximum agonist stimulation (1 μM Analogue 2 for RXFP3 and 1 μM Analogue 13 for RXFP4). Data were analysed and plotted using GraphPad Prism 9 and are expressed as the mean±SEM of the pooled data. Statistical analysis was conducted using one-way ANOVA with Uncorrected Fisher's LSD post-hoc analysis using GraphPad Prism 9.
(§1) An additional analogue of INSL5 was utilised as a control, INSL5-A13, having an A chain (SEQ ID NO: 9) and a B chain (SEQ ID NO: 10) with a first disulfide bond between Cys 1 of the A chain and Cys 7 of the B chain, and a second disulfide bond between Cys 14 of the A chain and Cys 19 of the B chain:
(§2) Competition binding and cAMP activity assay were conducted by a procedure analogous to that described above for Example 3. The results are shown in FIG. 24 (RXFP3) and FIG. 25 (RXFP4).

The target of data set [2] is T1, RXFP4. As to the kind of experiment: Eu-R3/I5 competition binding assay in CHO-K1-RXFP4 cells. On the set-up: expressed in transfected cells. Particulars: RXFP4, CHO-K1-RXFP4 cells, 5 nM Eu-R3/I5; Table 3; read-out: Eu-R3/I5 pKi (converted). As to the method: An Eu-R3/15 competition binding assay in CHO-K1-RXFP4 cells was carried out.
(§3) Competition binding curves for each peptide were performed in triplicate and each experiment was performed independently at least three times. Fluorescent measurements were carried out at excitation of 340 nm and emission of 614 nm on a BMG POLARstar plate reader (BMG Labtech, Melbourne, Australia). Pooled data were presented as mean±S.E.M. of specific binding and are fitted using a one-site binding curve in GraphPad Prism version 8 (GraphPad Inc., San Diego, USA). Statistical analyses were conducted using one-way analysis of variance with uncorrected Fisher's least significant difference (LSD) post-hoc analysis in GraphPad Prism version 9.
as §1, §2

Data set [3] concerns the target T1, RXFP4. Briefly: NanoBRET β-arrestin2 recruitment assay, RXFP4-NLuc / Venus-β-arrestin2 in HEK293T cells. Particulars: AUC of the entire time course; text of b227; read-out: pEC50, RXFP4 β-arrestin2 recruitment (converted). Set-up: expressed in transfected cells; host or cells: HEK293T (transient, Lipofectamine 2000, pcDNA3.1/Zeo(+)). In kind it is cell-based. Here is the method:
(§4) The inventors assessed if H3B10-27(13/17αF) retained the ability to recruit β-arrestin2 and therefore display full agonist activity at RXFP3 and RXFP4, in comparison to Peptide 5.
(§5) For NanoBRET β-arrestin2 recruitment assays, HEK293T cells were plated onto a six-well plate, and were transfected the following day with β-arrestin2-Venus and either RXFP3-Nluc or RXFP4-Nluc, in the pcDNA3.1/Zeo(+) vector, using Lipofectamine 2000. The next day, cells were washed with DPBS and resuspended in complete media containing 25 mM HEPES but no phenol red, and were seeded into a 96-well CulturPlate (PerkinElmer). The next day, prior to the assay, cells were pre-incubated in phenol red free media with NLuc substrate, 5 μM coelenterazine 400a for RXFP3-nLuc and 5 μM coelenterazine h for RXFP4-NLuc (both from Nanolight, Pinetop, AZ, USA) to establish a baseline, before addition of ligand or vehicle. Emissions were detected simultaneously using a PHERAstar FSX plate reader (BMG Labtech) with 450/80 nm and 535/30 nm filters. Ligand-induced BRET ratio was calculated by subtracting the ratio of 535/30 nm emissions to 450/80 nm emissions for vehicle from the same ratio for ligand-treated wells. […]
For orientation: Bioluminescence resonance energy transfer reports proximity on the nanometre scale.

Data set [4] concerns the target T2, RXFP3 (Homo sapiens, UniProt Q9NSD7).
T2 construct: expressed in transfected cells
T2 sequence (Q9NSD7 1-469): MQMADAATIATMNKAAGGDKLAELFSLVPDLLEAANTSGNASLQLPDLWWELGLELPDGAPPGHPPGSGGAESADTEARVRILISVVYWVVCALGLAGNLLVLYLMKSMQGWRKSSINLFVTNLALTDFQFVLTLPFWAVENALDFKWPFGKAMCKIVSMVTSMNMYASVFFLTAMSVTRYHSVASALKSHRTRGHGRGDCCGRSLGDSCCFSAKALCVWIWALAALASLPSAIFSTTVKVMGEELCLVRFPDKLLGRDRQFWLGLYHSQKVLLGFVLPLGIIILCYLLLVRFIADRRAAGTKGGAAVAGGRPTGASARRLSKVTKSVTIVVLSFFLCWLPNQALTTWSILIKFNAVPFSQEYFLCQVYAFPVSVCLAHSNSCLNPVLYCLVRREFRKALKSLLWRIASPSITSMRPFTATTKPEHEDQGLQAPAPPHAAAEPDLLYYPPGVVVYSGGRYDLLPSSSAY
As to the kind of experiment: Eu-H3B1-22R competition binding assay in CHO-K1-RXFP3 cells. Particulars: 5 nM Eu-H3B1-22R, mean ± SEM (n), Table 2, read-out: Eu-H3B1-22R pKi (converted). Here is the method:
An Eu-H3B1-22R competition binding assay was conducted in CHO-K1-RXFP3 cells.
as §3, §2

The target in data set [5] is T2, RXFP3. As to the kind of experiment: Inhibition of forskolin-induced cAMP activity in CHO-K1-RXFP3 cells (pCRE β-galactosidase reporter). The settings on record: 5 μM forskolin, 6 hours, Table 2, read-out: cAMP pEC50 (converted). It counts as cell-based. Here is the method:
Since RXFP3 is coupled to Gi/o proteins, peptides were tested for their ability to activate RXFP3 as measured via their ability to inhibit forskolin-induced cAMP activity in CHO-K1-RXFP3 or CHO-K1-RXFP4 cells transfected with a pCRE (cAMP Response Element) β-galactosidase reporter plasmid (as described in Belgi, A et al., Structure and function relationship of murine insulin-like peptide 5 (INSL5): free C-terminus is essential for RXFP4 receptor binding and activation. Biochemistry 2011, 50 (39), 8352-61; and Haugaard-Kedstrom, L. M et al., Synthesis and pharmacological characterization of a europium-labelled single-chain antagonist for binding studies of the relaxin-3 receptor RXFP3. Amino Acids 2015, 47 (6), 1267-71). For agonist assays, cells were stimulated with forskolin (5 μM for RXFP3, 1 μM for RXFP4)±increasing concentrations of each peptide for 6 hours. Data were expressed as the % forskolin activity, whereby 100% was defined as forskolin alone and 0% as maximum agonist stimulation (1 μM Analogue 2 for RXFP3 and 1 μM Analogue 13 for RXFP4). Data were analysed and plotted using GraphPad Prism 9 and are expressed as the mean±SEM of the pooled data. Statistical analysis was conducted using one-way ANOVA with Uncorrected Fisher's LSD post-hoc analysis using GraphPad Prism 9.
as §2

A short description of data set [6]: In vitro serum stability in human serum at 37° C. The settings on record: human serum.
Data set [7] has as its target T3, RXFP3 (Homo sapiens, UniProt Q9NSD7).
T3 construct: expressed in transfected cells; host or cells: HEK293T (transient, Lipofectamine 2000, pcDNA3.1/Zeo(+))
Briefly: NanoBRET β-arrestin2 recruitment assay, RXFP3-NLuc / Venus-β-arrestin2 in HEK293T cells. In kind it is cell-based. Here is the method:
as §4
The RXFP3 β-arrestin2 recruitment assay was carried out by PCR cloning NLuc onto the C-terminus of human RXFP3 in an identical manner to the RXFP3-rLuc8 construct to create pcDNA3.1-RXFP3-NLuc. The construct was sequenced on both strands to confirm that the NLuc was in frame with RXFP3 and there were no additional PCR mutations. pcDNA3.1-RXFP3-NL was tested in parallel with pcDNA3.1-RXFP3 in cAMP activity assays to determine if the C-terminal nanoluciferase fusion affected agonist activity.
as §5, with “The next day, prior to the assay, cells were pre-incubated in phenol red free media with NLuc substrate, 5 μM coelenterazine 400a for RXFP3-nLuc and 5 μM coelenterazine h for RXFP4-NLuc (both from Nanolight, Pinetop, AZ, USA) to establish a baseline, before addition of ligand or vehicle.” left out

Data set [8] concerns the target T4, RXFP4 (relaxin family peptide receptor 4) on CHO-K1-RXFP4 cells (UniProt Q8TDU9 1-374, limits assumed). Briefly: cell-based or functional assay.
Data set [9] has as its target T4, RXFP4 (relaxin family peptide receptor …). As to the kind of experiment: competition with 5 nM Eu-DTPA-R3/I5 on CHO-K1-RXFP4 cells.
In data set [10] the target is T5, RXFP3 (relaxin family peptide receptor 3) on CHO-K1-RXFP3 cells (UniProt Q9NSD7 1-469, limits assumed).
T5 sequence (looked up): T2 sequence (Q9NSD7 1-469)
As to the kind of experiment: cell-based or functional assay.

Data set [11] deals with T5, RXFP3 (relaxin family peptide receptor …). Briefly: competition with 5 nM Eu-H3B1-22R on CHO-K1-RXFP3 cells.
For data set [12], the target named is T6, RXFP3-NLuc (human RXFP3 with Nanoluciferase on the C-terminus) (human, UniProt Q9NSD7 1-469).
T6 sequence (looked up): T2 sequence (Q9NSD7 1-469)
As to the kind of experiment: cell-based or functional assay.

Data set [13] addresses RXFP4-NLuc (nanoluciferase-tagged RXFP4) (UniProt Q8TDU9 1-374). Briefly: cell-based or functional assay.
Data set [14] addresses T5, RXFP3 (relaxin family peptide receptor …). As to the kind of experiment: cell-based or functional assay. The source holds these as a separate data set.
Data set [15] addresses T4, RXFP4 (relaxin family peptide receptor …). Briefly: cell-based or functional assay. The source holds these as a separate data set.
In data set [16] the target is T5, RXFP3 (relaxin family peptide receptor …). As to the kind of experiment: competition with Eu-H3B1-22R on CHO-K1-RXFP3 cells.
In data set [17] the target is T4, RXFP4 (relaxin family peptide receptor …). As to the kind of experiment: competition with Eu-R3/I5 on CHO-K1-RXFP4 cells.

Square brackets hold non-standard residues; d marks the D form. Ends that are not written are not given here. Peptide text beside a SMILES is read from it. αMeF = C[C@](N)(Cc1ccccc1)C(=O)O

T4 sequence (Q8TDU9 whole entry): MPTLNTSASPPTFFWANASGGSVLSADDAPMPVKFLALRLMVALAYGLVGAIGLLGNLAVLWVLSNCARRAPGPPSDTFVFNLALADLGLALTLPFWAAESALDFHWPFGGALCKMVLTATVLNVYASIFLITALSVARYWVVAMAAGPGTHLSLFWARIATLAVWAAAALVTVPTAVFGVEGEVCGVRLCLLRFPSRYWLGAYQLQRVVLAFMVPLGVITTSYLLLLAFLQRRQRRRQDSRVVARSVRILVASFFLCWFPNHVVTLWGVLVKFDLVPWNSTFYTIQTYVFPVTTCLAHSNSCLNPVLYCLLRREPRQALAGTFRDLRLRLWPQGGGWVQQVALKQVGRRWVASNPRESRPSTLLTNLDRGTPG
Chain of RXFP4-NLuc (nanoluciferase-tagged RXFP4) (Q8TDU9 whole entry): as above

`CC[C@H](C)[C@H](NC(=O)[C@H](Cc1ccccc1)NC(=O)[C@](C)(Cc1ccccc1)NC(=O)[C@H](CCCNC(=N)N)NC(=O)CNC(=O)[C@@H](N)CO)C(=O)N[C@@H](CCCNC(=N)N)C(=O)N[C@@](C)(Cc1ccccc1)C(=O)N[C@H](C(=O)N[C@H](C(=O)N[C@@H](Cc1ccccc1)C(=O)N[C@H](C(=O)N[C@@H](CO)C(=O)NCC(=O)NCC(=O)N[C@@H](CO)C(=O)N[C@@H](CCCNC(=N)N)C(=O)N[C@@H](Cc1c[nH]c2ccccc12)C(=O)O)[C@@H](C)O)[C@@H](C)CC)C(C)C` [H3B10-27(13/17αF)] (H-SGR[αMeF]FIR[αMeF]VIFTSGGSRW-OH): the EC50 is 55 nM at RXFP4 [1]; 2690 nM on RXFP4 [3]; 6.92 nM at RXFP3 [5]; 64.6 nM on RXFP3 [7] (AUC of NanoBRET time course, Table 4, read-out: RXFP3 pEC50 (β-arrestin2 recruitment) (converted)); 89.1 nM at RXFP3 [7] (AUC of the entire time course, text of b227, read-out: pEC50, RXFP3 β-arrestin2 recruitment (converted)). For the same molecule, the results for the Ki on RXFP4 [2] and at RXFP3 [4] were 155 nM and 148 nM, respectively. Besides, the half-life at 400 µg/mL in data set [6] was roughly 5 h.

B1: H3B10-27(13/17αF) (peptide)
peptide: SGR[αMeF]FIR[αMeF]VIFTSGGSRW
notes: 18-residue single-chain RXFP3 agonist, non-covalently stapled; also called πH3B; target peptide
In the case of B1, the “cAMP pEC50” value in data set [8] was found to be 7.26; in data set [10] it was 8.16. Also, the figures for the negative logarithm of the Ki (pKi) in [9] and in data set [11] were 6.81 and 6.83, respectively. For the same molecule, the “RXFP3 pEC50 (β-arrestin2 recruitment, NanoBRET AUC)” value in data set [12] is 7.19. Moreover, the “RXFP4 pEC50 (β-arrestin2 recruitment, NanoBRET AUC)” value in [13] stood at 5.57.

B2: H3B10-22R13/17αF (Formula X, RXFP3 antagonist) (peptide)
peptide: SGR[αMeF]FIR[αMeF]VIFTSR
notes: 14 residues
Take B2: the “RXFP3 Antagonist potency pIC50” value in data set [14] was found to be 6.98. The “RXFP4 cAMP pEC50” value in [15] was less than 5. Also, the pKi in data set [16] was 7.6. Moreover, the binding result in data set [17] is reported as “no binding”.

By half-life is commonly meant the time in which the quantity being followed falls by half. Lower therefore signals rapid decline. The term pKi denotes the Ki on a negative log10 scale, so that one unit is a factor of ten.

The record behind these values is patent publication US20260265334A1, “STAPLED PEPTIDES” (THE FLOREY INSTITUTE OF NEUROSCIENCE AND MENTAL HEALTH, priority 2023, published 2026).
